Assay [1] concerns the target RLC-depleted porcine cardiac (PC) myosin (porcine) (UniProt P79293). The assay can be described thus: reconstitution of RLC-depleted skinned muscle strips, SDS-PAGE; skinned porcine papillary muscle strips depleted of RLC with CDTA/Triton X-100, incubated with 40 uM RLC-WT or IVS6-1 and 2 mM DTT in pCa 8 solution, then RLC and TnC; washed, SDS-PAGE.
Assay [2] has the same target. In words: co-sedimentation; ~2.8 uM RLC-depleted PC myosin titrated with 0.1-14 uM human WT or IVS6-1 RLC (molar ratio 0.1-5.0) in 0.4 M KCl, 50 mM MOPS pH 7.0, 2 mM MgCl2, 1 mM DTT, with BSA, 30 min room temperature; myosin precipitated with 13 vol ice-cold water, pellet on SDS-PAGE, RLC/ELC band ratio; apparent Kd.
In assay [3] the target is pyrene labeled rabbit skeletal F-actin (rabbit) (UniProt P68135).
Assay [4] has the same target. In words: stopped-flow pyrene fluorescence; 0.25 uM myosin with 0.25 uM pyrene labeled F-actin (0.25 uM phalloidin) in rigor buffer 0.4 M KCl, 1 mM DTT, 10 mM MOPS pH 7.0, mixed 1:1 with 10-150 uM MgATP; MgATP-induced dissociation, single exponential fit.
Assay [5] has the same target. The assay can be described thus: other fluorescence titration; 0.5 uM pyrene labeled F-actin titrated with myosin in 0.05 uM increments to ~2 fold molar excess, rigor conditions; excitation 340 nm, emission 407 nm; quadratic fit; apparent Kd and stoichiometry n.

For orientation: stoichiometry N means the number of molecules, sites or subunits per partner or assembly.

Consider “human cardiac RLC IVS6-1 (c403-1G>C) splice site mutant protein (from UniProt P10916 1-134) (natural protein)”, for which the percent fiber reconstitution in assay [1] stood at 100%. In addition, the Kd in assay [2] came out at 4410 nM.
Take “native porcine cardiac (PC) myosin (from UniProt P79293 1-1935) (complex)”: in assay [3], the Km (actin) of actin-activated myosin ATPase activity turned out to be 1.93 µM and the Vmax of actin-activated myosin ATPase activity (F-actin 0.1-25 uM, ~1.9 uM myosin, 30°C) came to 0.24 s⁻¹. In assay [4], this molecule returned a k1, MgATP-induced actin-myosin dissociation rate at 10 μM MgATP of 6.2 s⁻¹; a k1, MgATP-induced actin-myosin dissociation rate at 25 μM MgATP of 15.8 s⁻¹; a k1, MgATP-induced actin-myosin dissociation rate at 40 μM MgATP of 24.5 s⁻¹; a k1, MgATP-induced actin-myosin dissociation rate at 60 μM MgATP of 33.4 s⁻¹. In assay [4], this molecule came in with a k1, MgATP-induced actin-myosin dissociation rate at 80 μM MgATP of 47.2 s⁻¹; a k1, MgATP-induced actin-myosin dissociation rate at 125 μM MgATP of 65.9 s⁻¹; a k1, MgATP-induced actin-myosin dissociation rate at 150 μM MgATP of 86.8 s⁻¹. In addition, in assay [5], the Kd is 2.9 nM and the stoichiometry N was 0.47.
For “porcine cardiac myosin reconstituted with human cardiac RLC IVS6-1 (from UniProt P79293 1-1935; P10916 1-134) (complex)”, in assay [3], the Km (actin) of actin-activated myosin ATPase activity was 3.33 µM and the Vmax of actin-activated myosin ATPase activity (F-actin 0.1-25 uM, ~1.9 uM myosin, 30°C) stood at 0.15 s⁻¹. Moreover, in assay [4], the k1, MgATP-induced actin-myosin dissociation rate at 10 μM MgATP is 5.5 s⁻¹; the k1, MgATP-induced actin-myosin dissociation rate at 25 μM MgATP is 14.4 s⁻¹; the k1, MgATP-induced actin-myosin dissociation rate at 40 μM MgATP turned out to be 21 s⁻¹; the k1, MgATP-induced actin-myosin dissociation rate at 60 μM MgATP turned out to be 30.5 s⁻¹. In assay [4], this molecule yielded a k1, MgATP-induced actin-myosin dissociation rate at 80 μM MgATP of 41.4 s⁻¹; a k1, MgATP-induced actin-myosin dissociation rate at 125 μM MgATP of 57.5 s⁻¹; a k1, MgATP-induced actin-myosin dissociation rate at 150 μM MgATP of 67.8 s⁻¹. In addition, in assay [5], the Kd was determined as 16.7 nM and the stoichiometry N is 0.59.
In the case of “porcine cardiac myosin reconstituted with human cardiac RLC WT (from UniProt P79293 1-1935; P10916 1-166) (complex)”, in assay [3], the Km (actin) of actin-activated myosin ATPase activity was found to be 3.67 µM and the Vmax of actin-activated myosin ATPase activity (F-actin 0.1-25 uM, ~1.9 uM myosin, 30°C) is 0.25 s⁻¹. For the same molecule, in assay [4], the k1, MgATP-induced actin-myosin dissociation rate at 10 μM MgATP worked out at 7.4 s⁻¹; the k1, MgATP-induced actin-myosin dissociation rate at 25 μM MgATP was 15.6 s⁻¹; the k1, MgATP-induced actin-myosin dissociation rate at 40 μM MgATP was 19.9 s⁻¹; the k1, MgATP-induced actin-myosin dissociation rate at 60 μM MgATP was 36 s⁻¹. In assay [4], the k1, MgATP-induced actin-myosin dissociation rate at 80 μM MgATP worked out at 50.4 s⁻¹; the k1, MgATP-induced actin-myosin dissociation rate at 125 μM MgATP turned out to be 70.4 s⁻¹; the k1, MgATP-induced actin-myosin dissociation rate at 150 μM MgATP was 88.7 s⁻¹. In assay [5], the Kd was 4.6 nM and the stoichiometry N was determined as 0.51.

B1: wild-type (WT) human cardiac (ventricular/slow-twitch skeletal) myosin regulatory light chain (natural protein)
chain: MAPKKAKKRAGGANSNVFSMFEQTQIQEFKEAFTIMDQNRDGFIDKNDLRDTFAALGRVNVKNEEIDEMIKEAPGPINFTVFLTMFGEKLKGADPEETILNAFKVFDPEGKGVLKADYVREMLTTQAERFSKEEVDQMFAAFPPDVTGNLDYKNLVHIITHGEEKD
In assay [1], B1 displayed a percent fiber reconstitution of 100%. Also, the Kd in assay [2] was 1420 nM.

Source of the values: PMC4911367.
